From patent publication US20040259096A1, “Receptor capture assay” (priority 2001, published 2004)

Key:
HIF-1α = test: Detecting HIF-1α activation in cytosolic extracts of HeLa S3 cells, anti-ARNT capture, real-time PCR; assay type: cell-based, human
Method: HIF-1 DNA binding activity was induced as follows. Actively dividing HeLa S3 cells were treated with 125 μM CoCl2 for 4 hr at 37° C. Cells were washed 2× in tissue culture dishes with ice cold phosphate-buffered saline (PBS) before harvesting. Cells were pelleted at 420×g for 5 min, washed twice with PBS and resuspended in 5 packed cell volumes of buffer A (10 mM Tris-HCl (pH 7.6), 1.5 mM MgCl2, 10 mM KCl, 1 mM DTT) supplemented with Sigma protease inhibitor cocktail (P 8340, Sigma Chemical Co., St. Louis, Mo.). After incubation on ice for 15 min, cells were pelleted at 450×g for 5 min, resuspended in 2 packed cell volumes of buffer C (0.42 M KCl, 20 mM Tris-HCl (pH 7.6), 20% glycerol, 1.5 MM MgCl2, 1 mM DTT and 0.2 mM EDTA) supplemented with Sigma protease inhibitor cocktail. The cells were disrupted using a Branson Sonifier 450 (Branson Ultrasonics Corp., Danbury, Conn.) fitted with a microtip for two 20-second pulses at a 45% duty cycle. After centrifugation at 20,000×g for 5 min, the supernatant was designated as cytosolic extract. The cytosolic extracts from treated and untreated cells were aliquoted and stored at −80° C. […]
Primers PRIHa and PRIHb (0.9 μM final) were added to 2×PCR SYBR® Green Master Mix (Applied Biosystems Cat No. 4309155) and the Master Mix made 1× with Water. […] 50 μl of master mix from each well was transferred to a PCR plate, capped and analyzed by real-time PCR using an Opticon thermocycler (MJ Research, Inc., Watham, Mass.). […]
In brief cytosolic extracts prepared from untreated or CoCl2 treated cells were diluted and exposed to nucleic acid-tracer. […] DNA amplification was monitored using real-time PCR. The process takes only a few hours to complete and provides qualitative or quantitative results.
The PCR data is typically plotted as a primary growth curve. For quantitative and comparative purposes, a threshold cycle (Ct) is defined for each sample. […] The Ct value is typically calculated near the first cycle where the PCR products are amplified at the greatest rate (no reagent is limiting) and where the amplified product is detectable above background. […]

Estrogen receptor alpha [1] = molecular target: T1, Estrogen receptor alpha (Homo sapiens, UniProt P03372 P03372:1-595); test: competition; 100-fold excess reduces tracer signal 104 to 81; conditions: tags: baculovirus expressed, Panvera P2187; chain copies: 2
Glucocorticoid receptor [2] = molecular target: T2, Glucocorticoid receptor (UniProt P04150 P04150:1-777); test: competition; 100-fold excess reduces tracer signal 68 to 44; conditions: tags: baculovirus expressed, Panvera P2187 (so in the source)
Glucocorticoid receptor [3] = molecular target: T2, Glucocorticoid receptor; test: anti-GR capture PCR; DMSO 82, dexamethasone 68; 25 mM Tris pH 7.9, 60 mM KCl, 4 C; ligand independent; conditions: tags: baculovirus expressed, Panvera P2187 (so in the source)
Estrogen receptor alpha [4] = molecular target: T1, Estrogen receptor alpha; test: anti-ER capture PCR; DMSO 137, estradiol […]; 25 mM Tris pH 8.0, 50 mM KCl, 4 C; ligand independent; conditions: tags: baculovirus expressed, Panvera P2187; chain copies: 2

T2 sequence (P04150 whole entry, one chain of several): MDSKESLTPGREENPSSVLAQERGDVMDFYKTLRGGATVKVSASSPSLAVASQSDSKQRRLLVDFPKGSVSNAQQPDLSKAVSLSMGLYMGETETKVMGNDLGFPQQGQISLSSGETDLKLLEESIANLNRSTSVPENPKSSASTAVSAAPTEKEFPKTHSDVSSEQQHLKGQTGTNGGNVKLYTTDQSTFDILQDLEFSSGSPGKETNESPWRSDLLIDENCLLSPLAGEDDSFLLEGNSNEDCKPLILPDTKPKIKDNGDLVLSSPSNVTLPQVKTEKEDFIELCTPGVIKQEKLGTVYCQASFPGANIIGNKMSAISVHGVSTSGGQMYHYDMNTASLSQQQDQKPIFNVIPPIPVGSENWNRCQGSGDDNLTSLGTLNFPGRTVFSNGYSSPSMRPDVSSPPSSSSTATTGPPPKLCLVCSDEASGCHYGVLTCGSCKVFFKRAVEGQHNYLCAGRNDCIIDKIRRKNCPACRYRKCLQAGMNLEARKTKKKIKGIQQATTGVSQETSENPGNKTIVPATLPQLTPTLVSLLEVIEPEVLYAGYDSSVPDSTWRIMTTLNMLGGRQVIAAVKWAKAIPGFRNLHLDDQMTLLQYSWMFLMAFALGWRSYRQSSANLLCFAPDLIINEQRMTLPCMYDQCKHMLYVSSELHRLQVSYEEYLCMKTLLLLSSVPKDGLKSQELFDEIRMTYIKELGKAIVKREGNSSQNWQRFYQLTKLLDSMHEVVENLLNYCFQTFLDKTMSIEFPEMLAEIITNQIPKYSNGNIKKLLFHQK
T1 sequence (P03372 whole entry, one chain of several): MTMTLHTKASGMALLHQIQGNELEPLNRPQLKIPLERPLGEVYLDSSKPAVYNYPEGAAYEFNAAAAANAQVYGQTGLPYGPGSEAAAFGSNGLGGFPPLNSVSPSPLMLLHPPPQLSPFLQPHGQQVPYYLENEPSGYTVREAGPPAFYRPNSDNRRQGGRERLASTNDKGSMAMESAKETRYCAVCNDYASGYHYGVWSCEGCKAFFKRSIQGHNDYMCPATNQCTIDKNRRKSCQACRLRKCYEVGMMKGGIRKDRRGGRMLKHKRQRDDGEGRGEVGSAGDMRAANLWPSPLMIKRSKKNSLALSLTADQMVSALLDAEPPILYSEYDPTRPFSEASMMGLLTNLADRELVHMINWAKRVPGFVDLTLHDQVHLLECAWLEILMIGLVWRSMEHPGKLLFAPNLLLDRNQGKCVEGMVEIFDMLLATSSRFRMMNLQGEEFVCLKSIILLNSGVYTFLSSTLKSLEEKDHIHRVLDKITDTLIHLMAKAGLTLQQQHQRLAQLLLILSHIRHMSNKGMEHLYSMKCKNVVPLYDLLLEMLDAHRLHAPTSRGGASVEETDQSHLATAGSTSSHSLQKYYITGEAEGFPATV

With `[Cl][Co][Cl]` [CoCl2, cobalt chloride] the “Ct Value” (HIF-1α; cytosol of treated cells (CoCl2), plus 100x DNA competitor) was 22.52, the “Ct Value” (HIF-1α; cytosol of treated cells (CoCl2, 4 hr), no DNA competitor, untreated 23.08) was 20.47 and the “difference of Ct values, treated versus untreated cytosolic preparations” value (HIF-1α; no DNA competitor) was “more than 2.60 units”.

B1: competitor ERE (DX1/DX3) (dsDNA)
DNA 1: CTAGAAAGTCAGGTCACAGTGACCTG
DNA 2: CAGGTCACTGTGACCTGACTTTCTAG
B1: binds (Estrogen receptor alpha [1]).

B2: competitor GRE (TGR1/TGR2) (dsDNA)
DNA 1: GCTGTACAGGATGTTCTGCC
DNA 2: GGCAGAACATCCTGTACAGC
B2: binds (Glucocorticoid receptor [2]).

B3: GRE tracer (BGGR1/BGGR2) (dsDNA)
DNA 1: CAACTTCATCCACGTTCACCGCTGTACAGGATGTTCTGCCGTACCTGTCCTTGGCTCTTC
DNA 2: GAAGAGCCAAGGACAGGTACGGCAGAACATCCTGTACAGCGGTGAACGTGGATGAAGTTG
B3: binds (Glucocorticoid receptor [3]).

B4: ERE tracer (VER1/VER2) (dsDNA)
DNA 1: CAACTTCATCCACGTTCACCGTCCAAAGTCAGGTCACAGTGACCTGATCAAAGTTGTACCTGTCCTTGGCTCTTC
DNA 2: GAAGAGCCAAGGACAGGTACAACTTTGATCAGGTCACTGTGACCTGACTTTGGACGGTGAACGTGGATGAAGTTG
B4: binds (Estrogen receptor alpha [4]).
